The results in this text go back to US20190077883A1.

Assay [1] concerns the target recombinant human FcRn (SPR of Example 2) (human) (UniProt P55899). Kind of assay: SPR Biacore T200, IgG immobilised, hFcRn 1000.0-15.6 nM injected, pH 6.0, 25 C, 1:1 Langmuir. (In SPR one partner is held on a chip, and binding of the other changes the refractive index at the surface.)
Assay [2] shares this target. Kind of assay: SPR Biacore T200, pH 6.0, KD against IgG1-WT.
In assay [3] the target is GST-tagged human FcRn (human; Schistosoma japonicum) (UniProt P55899). Kind of assay: ELISA pH 6.0, h9C12 variant captured on AdV5 hexon, GST-hFcRn detected with anti-GST-HRP. A general note: An ELISA detects its analyte on a solid surface through an enzyme-linked reagent.
Assay [4] concerns the target Monomeric His-tagged human FcRn (human) (UniProt P55899). Kind of assay: SPR Biacore 3000, pH 6.0, KD against IgG1 WT.
Assay [5] shares this target. As to the kind of experiment: SPR Biacore 3000, IgG immobilised, monomeric hFcRn injected, pH 6.0, 1:1 Langmuir.
For assay [6] the target is unchanged. Kind of assay: SPR Biacore 3000, IgG immobilised, monomeric hFcRn injected, pH 7.4.

recombinant human FcRn (SPR of Example 2) (human), sequence (P55899 24-290 limits assumed, form in doubt): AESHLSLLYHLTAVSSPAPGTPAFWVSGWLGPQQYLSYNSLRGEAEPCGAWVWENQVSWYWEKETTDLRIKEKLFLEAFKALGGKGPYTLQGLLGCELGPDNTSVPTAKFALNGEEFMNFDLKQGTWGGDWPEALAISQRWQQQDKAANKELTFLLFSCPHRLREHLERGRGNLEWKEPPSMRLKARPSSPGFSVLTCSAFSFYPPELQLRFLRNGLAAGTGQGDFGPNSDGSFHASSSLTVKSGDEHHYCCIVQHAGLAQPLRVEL
Monomeric His-tagged human FcRn (human), sequence (P55899 24-290 limits assumed, form in doubt): as above
GST-tagged human FcRn (human; Schistosoma japonicum), sequence (P55899 24-297, chain 1 of 2): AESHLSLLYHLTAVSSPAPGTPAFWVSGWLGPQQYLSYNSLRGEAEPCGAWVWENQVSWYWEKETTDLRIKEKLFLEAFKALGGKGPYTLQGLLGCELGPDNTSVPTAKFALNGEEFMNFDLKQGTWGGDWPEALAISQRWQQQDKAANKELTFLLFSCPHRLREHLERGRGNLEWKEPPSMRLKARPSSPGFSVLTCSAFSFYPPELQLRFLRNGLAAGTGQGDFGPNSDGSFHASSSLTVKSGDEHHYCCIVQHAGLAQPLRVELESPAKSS
GST-tagged human FcRn (human; Schistosoma japonicum), sequence (P61769 21-119, chain 2 of 2, further chain): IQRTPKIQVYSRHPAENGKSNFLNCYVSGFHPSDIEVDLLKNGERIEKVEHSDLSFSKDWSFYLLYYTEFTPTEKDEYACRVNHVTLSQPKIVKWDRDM

What is called Kd is the concentration at which binding is half-saturated. One may read the koff as the rate constant with which the complex falls apart. Take h9C12 IgG1-Q311R/N434P/M428E (antibody): in assay [1], the Kd came out at 0.0242 µM and the koff was 0.0405 s⁻¹. In addition, in assay [2], the Fold change from WT (KD) pH 6.0 amounted to 11.3 fold. For the same substance, the Fold change from WT (ELISA) pH 6.0 in assay [3] was 3 fold.

As to “h9C12 IgG1-L309S/Q311R/N434W/M428E (antibody)”, the Fold change from WT (ELISA) pH 6.0 in assay [3] worked out at 6 fold.

Turning to h9C12 IgG1-M252Y/S254T/T256E (antibody), the Fold change from WT in assay [4] is 8.4 fold. For the same substance, in assay [5], the Kd stood at 0.093 µM and the koff was 0.0078 s⁻¹.

Substance h9C12 IgG1-Q311R (antibody) had a Fold change from WT in assay [4] of 1.1 fold. Moreover, in assay [5], the equilibrium dissociation constant (Kd) came to 0.687 µM and the off-rate constant (koff) is 0.0572 s⁻¹.

As to “h9C12 IgG1-L309K/Q311R/N434W/M428E (antibody)”, in assay [3], the Fold change from WT (ELISA) pH 6.0 was 6 fold.

Take h9C12 IgG1-N434W (antibody): the Kd was 1.98 µM in assay [6] and 0.0148 µM in assay [5]. The substance further gave a Fold change from WT in assay [4] of 52.9 fold. The substance also yielded a koff in assay [5] of 0.0032 s⁻¹.

In the case of h9C12 IgG1-Q311R/N434W/M428E (antibody), in assay [1], the Kd stood at 0.0093 µM and the dissociation rate constant (koff) was determined as 0.0111 s⁻¹. In assay [4], this substance came in with a Fold change from WT of 20.3 fold. The Fold change from WT (KD) pH 6.0 in assay [2] is 29.3 fold. Besides, in assay [5], the equilibrium dissociation constant (Kd) was 0.0385 µM and the koff was found to be 0.005 s⁻¹. The same substance registered a Fold change from WT (ELISA) pH 6.0 in assay [3] of 6 fold.

Turning to h9C12 IgG1-Q311R/N434W/M428D (antibody), in assay [1], the dissociation constant (Kd) turned out to be 0.0294 µM and the koff was found to be 0.0312 s⁻¹. Further, the Fold change from WT (KD) pH 6.0 in assay [2] amounted to 9.28 fold. For the same substance, the Fold change from WT (ELISA) pH 6.0 in assay [3] was 3 fold.

With “h9C12 IgG1-Q311R/N434W/M428E/H433K (antibody)”, the Fold change from WT (ELISA) pH 6.0 in assay [3] was 9 fold.

Turning to “h9C12 IgG1-M252S/Q311R/N434W/M428E (antibody)”, the Fold change from WT (ELISA) pH 6.0 in assay [3] turned out to be 6 fold.

Turning to “h9C12 IgG1-L309R/Q311R/N434W/M428E (antibody)”, in assay [3], the Fold change from WT (ELISA) pH 6.0 is 6 fold.

Take h9C12 IgG1-Q311R/N434W (antibody): the Fold change from WT in assay [4] came to 35.1 fold. In assay [5], this substance gave a Kd of 0.0223 µM and an off-rate constant (koff) of 0.0036 s⁻¹.
